Laboratory results reported in PMC8509676, “Residual Helicity at the Active Site of the Histidine Phosphocarrier, HPr, Modulates Binding Affinity to Its Natural Partners” (International Journal of Molecular Sciences, 2021).

Biological target: T1, Regulator of sigma D from Escherichia coli (Rsd^ec) (E. coli, UniProt P0AFX4 1-158)
T1 construct: Rsd (regulator of sigma D), anti-sigma factor of sigma 70, E. coli; 158-residue-long protein; called 'intact Rsd' in the abstract and 'wild-type Rsd vector' in the methods; Vector was a gift from Ann Hochschild; source: E. coli C41, purified as described [24,50]
T1 sequence (looked up): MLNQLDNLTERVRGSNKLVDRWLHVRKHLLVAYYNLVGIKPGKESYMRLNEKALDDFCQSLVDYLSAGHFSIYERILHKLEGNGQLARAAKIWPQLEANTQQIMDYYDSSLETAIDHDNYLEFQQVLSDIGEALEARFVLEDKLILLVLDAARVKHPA
Assay: ITC; Rsd^ec or EIN^sc (10–20 µM) in the cell, peptide (100–200 µM) in the syringe; 50 mM Tris, pH 7.0, 25 °C; single binding-site model, 1:1 stoichiometry assumed
Conditions: both partners purified

B1: HPr^9–30 I21A peptide (peptide)
peptide: Ac-GWAEGLHARPASAFVRAATATG-NH2
notes: HPr of Streptomyces coelicolor, residues 9-30, with I21A; source: synthetic peptide, bought: NZYTech (purity >95%)
  dH: 1 ± 0.4 kcal/mol

B2: HPr^9–30 P18A peptide (peptide)
peptide: Ac-GWAEGLHARAASIFVRAATATG-NH2
notes: HPr of Streptomyces coelicolor, residues 9-30, with P18A; source: synthetic peptide, bought: NZYTech (purity >95%)
  Kd: 2200 ± 400 nM
  dH: 1.1 ± 0.4 kcal/mol

B3: HPr^9–30 P18A/I21A/V23A peptide (peptide)
peptide: Ac-GWAEGLHARAASAFARAATATG-NH2
notes: HPr of Streptomyces coelicolor, residues 9-30, with P18A, I21A and V23A; also called triple-mutant; source: synthetic peptide, bought: NZYTech (purity >95%)
  Kd: 2600 ± 400 nM
  dH: 0.6 ± 0.4 kcal/mol
